From patent US20220363770A1 (Amgen, published 2022)

T1: human PAC1 receptor on SH-SY5Y (CRL-2266) cells (human, UniProt P41586 24-468)
T1 sequence: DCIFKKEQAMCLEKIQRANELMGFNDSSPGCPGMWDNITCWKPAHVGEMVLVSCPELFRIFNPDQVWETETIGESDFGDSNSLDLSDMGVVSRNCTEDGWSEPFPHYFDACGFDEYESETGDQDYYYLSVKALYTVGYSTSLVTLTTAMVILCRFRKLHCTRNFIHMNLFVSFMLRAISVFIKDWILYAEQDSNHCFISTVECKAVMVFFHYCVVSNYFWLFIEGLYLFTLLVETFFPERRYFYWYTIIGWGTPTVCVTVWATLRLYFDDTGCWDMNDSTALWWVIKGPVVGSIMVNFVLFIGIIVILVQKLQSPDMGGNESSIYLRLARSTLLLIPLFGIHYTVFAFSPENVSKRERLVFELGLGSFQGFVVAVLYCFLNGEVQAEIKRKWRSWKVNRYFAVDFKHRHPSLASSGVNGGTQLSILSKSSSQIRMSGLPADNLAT


Key:
[1] = biological target: human CGRP receptor (human CRLR / human RAMP1 heterodimer) on SK-N-MC (HTB-10) cells (human, UniProt Q16602 23-461; O60894 27-148); test: cell-based or functional assay
[2] = biological target: T1, human PAC1 receptor on SH-SY5Y …; test: cell-based or functional assay
[3] = biological target: T2, soluble CGRP receptor (extracellular domains of human CRLR and human RAMP1) (human, UniProt Q16602 23-133; O60894 26-117); test: SPR (Biacore T200), antibody captured by goat anti-human Fc, soluble CGRP receptor as analyte, 1:1 model
T2 construct: the tag and the thrombin site are not described; also called soluble human CGRP receptor; CGRP receptor ECD
T2 sequence (Q16602 23-133, chain 1 of 2): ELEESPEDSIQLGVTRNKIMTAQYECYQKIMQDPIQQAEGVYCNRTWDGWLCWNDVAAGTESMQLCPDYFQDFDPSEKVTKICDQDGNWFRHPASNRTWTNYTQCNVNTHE
T2 sequence (O60894 26-117, chain 2 of 2): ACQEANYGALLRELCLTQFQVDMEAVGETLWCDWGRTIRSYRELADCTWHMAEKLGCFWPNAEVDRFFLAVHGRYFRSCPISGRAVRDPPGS

human CGRP receptor (human CRLR / human RAMP1 heterodimer) on SK-N-MC (HTB-10) cells, sequence (Q16602 23-461 limits assumed, chain 1 of 2): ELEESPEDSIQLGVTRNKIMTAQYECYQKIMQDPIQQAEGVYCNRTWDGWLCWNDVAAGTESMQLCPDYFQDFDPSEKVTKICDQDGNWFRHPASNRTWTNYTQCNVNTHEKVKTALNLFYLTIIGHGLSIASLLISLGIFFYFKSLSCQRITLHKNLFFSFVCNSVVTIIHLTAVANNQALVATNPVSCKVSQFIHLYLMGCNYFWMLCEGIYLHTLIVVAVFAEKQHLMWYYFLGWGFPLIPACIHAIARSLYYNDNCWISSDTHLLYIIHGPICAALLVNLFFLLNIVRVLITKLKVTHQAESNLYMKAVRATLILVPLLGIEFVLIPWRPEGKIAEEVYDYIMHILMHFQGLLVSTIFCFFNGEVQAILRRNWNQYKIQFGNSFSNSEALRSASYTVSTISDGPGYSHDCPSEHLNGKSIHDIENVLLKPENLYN
human CGRP receptor (human CRLR / human RAMP1 heterodimer) on SK-N-MC (HTB-10) cells, sequence (O60894 27-148 limits assumed, chain 2 of 2): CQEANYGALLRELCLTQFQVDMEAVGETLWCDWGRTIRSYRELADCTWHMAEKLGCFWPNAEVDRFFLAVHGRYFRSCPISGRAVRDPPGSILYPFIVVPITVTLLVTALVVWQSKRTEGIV

| Fold-improvement over 4E4 Ab (human CGRP receptor IC50) [1] [fold] | Human CGRP Receptor IC50 (nM), cell-based cAMP assay [1] [nM] | Fold-improvement over 29G4v22 Ab (human PAC1 receptor IC50) [2] [fold] | Human PAC1 Receptor IC50 (nM), cell-based cAMP assay [2] [nM] | Kd [3] [nM] | koff [3] [s⁻¹] | kon [3] [M⁻¹ s⁻¹] | Binder |
| --- | --- | --- | --- | --- | --- | --- | --- |
| 1.3 | 0.45 | 4.8 | 0.86 | – | – | – | iPS:571017 (5604) anti-CGRP receptor/anti-PAC1 receptor bispecific hetero-immunoglobulin (bispecific antibody, human IgG1, kappa, lambda, N297G) light 1: QSVLTQPPSVSAAPGQKVTISCSGSYSNIGRYSVSWYQQLPGTAPKLLIYDNNKRPSGIPDRFSGSKSGTSATLGITGLQTGDEADYYCGTWDSRLSAVVFGGGTKLTVLGQPKAAPSVTLFPPSSEELQANKATLVCLISDFYPGAVTVAWKADSSPVKAGVETTTPSKQSNNKYAAKSYLSLTPEQWKSHRSYSCQVTHEGSTVEKTVAPTECS heavy 1: QVQLVESGGGVVQPGRSLRLSCAASGFTFSSFGMHWVRQAPGKGLEWVAVISFDGSIKYSVDSVKGRFTISRDNSKNTLFLQMNSLRAEDTAVYYCARDRLNYYESSGYYHYKYYGMAVWGQGTTVTVSSASTKGPSVFPLAPSSKSTSGGTAALGCLVKDYFPEPVTVSWNSGALTSGVHTFPAVLQSSGLYSLESVVTVPSSSLGTQTYICNVNHKPSNTKVDKKVEPKSCDKTHTCPPCPAPELLGGPSVFLFPPKPKDTLYITREPEVTCVVVDVSHEDPEVKFNWYVDGVEVHNAKTKPCEEQYGSTYRCVSVLTVLHQDWLNGKEYKCKVSNKALPAPIEKTISKAKGQPREPQVYTLPPSRKEMTKNQVSLTCLVKGFYPSDIAVEWESNGQPENNYKTTPPVLKSDGSFFLYSKLTVDKSRWQQGNVFSCSVMHEALHNHYTQKSLSLSPGK light 2: EIVLTQSPATLSLSPGERATLSCRASKSVGRSLHWYQQKPGQAPRLLIKYASQSLSGIPARFSGSGSGTDFTLTISSLEPEDFAVYYCHQSSRLPFTFGPGTKVDIKRTVAAPSVFIFPPSDEQLKSGTASVVCLLNNFYPREAKVQWKVDNALQSGNSQESVTEQDSKDSTYSLESTLTLSKADYEKHKVYACEVTHQGLSSPVTKSFNRGEC heavy 2: not shown |
| 0.9 | 0.63 | 4.4 | 0.88 | – | – | – | iPS:571023 (5607) anti-CGRP receptor/anti-PAC1 receptor bispecific hetero-immunoglobulin (bispecific antibody, human IgG1, kappa, lambda, N297G) light 1: QSVLTQPPSVSAAPGQKVTISCSGSYSNIGRYSVSWYQQLPGTAPKLLIYDNNKRPSGIPDRFSGSKSGTSATLGITGLQTGDEADYYCGTWDSRLSAVVFGGGTKLTVLGQPKAAPSVTLFPPSSEELQANKATLVCLISDFYPGAVTVAWKADSSPVKAGVETTTPSKQSNNKYAAKSYLSLTPEQWKSHRSYSCQVTHEGSTVEKTVAPTECS heavy 1: QVQLVESGGGVVQPGRSLRLSCAASGFTFSSFGMHWVRQAPGKGLEWVAVISFDGSIKYSVDSVKGRFTISRDNSKNTLFLQMNSLRAEDTAVYYCARDRLNYYESSGYYHYKYYGMAVWGQGTTVTVSSASTKGPSVFPLAPSSKSTSGGTAALGCLVKDYFPEPVTVSWNSGALTSGVHTFPAVLQSSGLYSLESVVTVPSSSLGTQTYICNVNHKPSNTKVDKKVEPKSCDKTHTCPPCPAPELLGGPSVFLFPPKPKDTLMISRTPEVTCVVVDVSHEDPEVKFNWYVDGVEVHNAKTKPCEEQYGSTYRCVSVLTVLHQDWLNGKEYKCKVSNKALPAPIEKTISKAKGQPREPQVYTLPPSRKEMTKNQVSLTCLVKGFYPSDIAVEWESNGQPENNYKTTPPVLKSDGSFFLYSKLTVDKSRWQQGNVFSCSVMHEALHNHYTQKSLSLSPGK light 2: EIVLTQSPATLSLSPGERATLSCRASKSVGRSLHWYQQKPGQAPRLLIKYASQSLSGIPARFSGSGSGTDFTLTISSLEPEDFAVYYCHQSSRLPFTFGPGTKVDIKRTVAAPSVFIFPPSDEQLKSGTASVVCLLNNFYPREAKVQWKVDNALQSGNSQESVTEQDSKDSTYSLESTLTLSKADYEKHKVYACEVTHQGLSSPVTKSFNRGEC heavy 2: not shown |
| 0.9 | 0.6 | 3.1 | 1.34 | – | – | – | iPS:571025 (5605) anti-CGRP receptor/anti-PAC1 receptor bispecific hetero-immunoglobulin (bispecific antibody, human IgG1, kappa, lambda, N297G) light 1: QSVLTQPPSVSAAPGQKVTISCSGSYSNIGRYSVSWYQQLPGTAPKLLIYDNNKRPSGIPDRFSGSKSGTSATLGITGLQTGDEADYYCGTWDSRLSAVVFGGGTKLTVLGQPKAAPSVTLFPPSSEELQANKATLVCLISDFYPGAVTVAWKADSSPVKAGVETTTPSKQSNNKYAAKSYLSLTPEQWKSHRSYSCQVTHEGSTVEKTVAPTECS heavy 1: QVQLVESGGGVVQPGRSLRLSCAASGFTFSSFGMHWVRQAPGKGLEWVAVISFDGSIKYSVDSVKGRFTISRDNSKNTLFLQMNSLRAEDTAVYYCARDRLNYYESSGYYHYKYYGMAVWGQGTTVTVSSASTKGPSVFPLAPSSKSTSGGTAALGCLVKDYFPEPVTVSWNSGALTSGVHTFPAVLQSSGLYSLESVVTVPSSSLGTQTYICNVNHKPSNTKVDKKVEPKSCDKTHTCPPCPAPELLGGPSVFLFPPKPKDTLYITREPEVTCVVVDVSHEDPEVKFNWYVDGVEVHNAKTKPCEEQYGSTYRCVSVLTVLHQDWLNGKEYKCKVSNKALPAPIEKTISKAKGQPREPQVYTLPPSRKEMTKNQVSLTCLVKGFYPSDIAVEWESNGQPENNYKTTPPVLKSDGSFFLYSKLTVDKSRWQQGNVFSCSVMHEALHNHYTQKSLSLSPGK light 2: EIVLTQSPATLSLSPGERATLSCRASKSVGRSLHWYQQKPGQAPRLLIKYASQSLSGIPARFSGSGSGTDFTLTISSLEPEDFAVYYCHQSSRLPFTFGPGTKVDIKRTVAAPSVFIFPPSDEQLKSGTASVVCLLNNFYPREAKVQWKVDNALQSGNSQESVTEQDSKDSTYSLESTLTLSKADYEKHKVYACEVTHQGLSSPVTKSFNRGEC heavy 2: not shown |
| 1.7 | 0.33 | 7.2 | 0.57 | – | – | – | iPS:571033 (5608) anti-CGRP receptor/anti-PAC1 receptor bispecific hetero-immunoglobulin (bispecific antibody, human IgG1, kappa, lambda, N297G) light 1: QSVLTQPPSVSAAPGQKVTISCSGSYSNIGRYSVSWYQQLPGTAPKLLIYDNNKRPSGIPDRFSGSKSGTSATLGITGLQTGDEADYYCGTWDSRLSAVVFGGGTKLTVLGQPKAAPSVTLFPPSSEELQANKATLVCLISDFYPGAVTVAWKADSSPVKAGVETTTPSKQSNNKYAAKSYLSLTPEQWKSHRSYSCQVTHEGSTVEKTVAPTECS heavy 1: QVQLVESGGGVVQPGRSLRLSCAASGFTFSSFGMHWVRQAPGKGLEWVAVISFDGSIKYSVDSVKGRFTISRDNSKNTLFLQMNSLRAEDTAVYYCARDRLNYYESSGYYHYKYYGMAVWGQGTTVTVSSASTKGPSVFPLAPSSKSTSGGTAALGCLVKDYFPEPVTVSWNSGALTSGVHTFPAVLQSSGLYSLESVVTVPSSSLGTQTYICNVNHKPSNTKVDKKVEPKSCDKTHTCPPCPAPELLGGPSVFLFPPKPKDTLMISRTPEVTCVVVDVSHEDPEVKFNWYVDGVEVHNAKTKPCEEQYGSTYRCVSVLTVLHQDWLNGKEYKCKVSNKALPAPIEKTISKAKGQPREPQVYTLPPSREKMTKNQVSLTCLVKGFYPSDIAVEWESNGQPENNYKTTPPVLKSDGSFFLYSKLTVDKSRWQQGNVFSCSVMHEALHNHYTQKSLSLSPGK light 2: EIVLTQSPATLSLSPGERATLSCRASKSVGRSLHWYQQKPGQAPRLLIKYASQSLSGIPARFSGSGSGTDFTLTISSLEPEDFAVYYCHQSSRLPFTFGPGTKVDIKRTVAAPSVFIFPPSDEQLKSGTASVVCLLNNFYPREAKVQWKVDNALQSGNSQESVTEQDSKDSTYSLESTLTLSKADYEKHKVYACEVTHQGLSSPVTKSFNRGEC heavy 2: not shown |
| – | – | – | – | 33 | 0.0006 | 18000 | 4E4 heavy chain K113A single-point alanine variant antibody (antibody, V domains shown, Recombinantly expressed as a monoclonal antibody) VH: QVQLVESGGGVVQPGRSLRLSCAASGFTFSSFGMHWVRQAPGKGLEWVAVISFDGSIKYSVDSVKGRFTISRDNSKNTLFLQMNSLRAEDTAVYYCARDRLNYYDSSGYYHYAYYGMAVWGQGTTVTVSS VL: QSVLTQPPSVSAAPGQKVTISCSGSSSNIGNNYVSWYQQLPGTAPKLLIYDNNKRPSGIPDRFSGSKSGTSTTLGITGLQTGDEADYYCGTWDSRLSAVVFGGGTKLTVLG |
| – | – | – | – | 11 | 0.00027 | 24000 | 4E4 light chain Y33A single-point alanine variant antibody (antibody, V domains shown, Recombinantly expressed as a monoclonal antibody; also called L-Y33A) VH: QVQLVESGGGVVQPGRSLRLSCAASGFTFSSFGMHWVRQAPGKGLEWVAVISFDGSIKYSVDSVKGRFTISRDNSKNTLFLQMNSLRAEDTAVYYCARDRLNYYDSSGYYHYKYYGMAVWGQGTTVTVSS VL: QSVLTQPPSVSAAPGQKVTISCSGSSSNIGNNAVSWYQQLPGTAPKLLIYDNNKRPSGIPDRFSGSKSGTSTTLGITGLQTGDEADYYCGTWDSRLSAVVFGGGTKLTVLG |
| – | – | – | – | 43 | 0.00077 | 18000 | 4E4 light chain R95A single-point alanine variant antibody (antibody, V domains shown, Recombinantly expressed as a monoclonal antibody) VH: QVQLVESGGGVVQPGRSLRLSCAASGFTFSSFGMHWVRQAPGKGLEWVAVISFDGSIKYSVDSVKGRFTISRDNSKNTLFLQMNSLRAEDTAVYYCARDRLNYYDSSGYYHYKYYGMAVWGQGTTVTVSS VL: QSVLTQPPSVSAAPGQKVTISCSGSSSNIGNNYVSWYQQLPGTAPKLLIYDNNKRPSGIPDRFSGSKSGTSTTLGITGLQTGDEADYYCGTWDSALSAVVFGGGTKLTVLG |
| – | – | – | – | 29 | 0.00046 | 16000 | 4E4 light chain K67A single-point alanine variant antibody (antibody, V domains shown, Recombinantly expressed as a monoclonal antibody) VH: QVQLVESGGGVVQPGRSLRLSCAASGFTFSSFGMHWVRQAPGKGLEWVAVISFDGSIKYSVDSVKGRFTISRDNSKNTLFLQMNSLRAEDTAVYYCARDRLNYYDSSGYYHYKYYGMAVWGQGTTVTVSS VL: QSVLTQPPSVSAAPGQKVTISCSGSSSNIGNNYVSWYQQLPGTAPKLLIYDNNKRPSGIPDRFSGSASGTSTTLGITGLQTGDEADYYCGTWDSRLSAVVFGGGTKLTVLG |
